According to paper PMC10963267 (2023):

Experiments:
Experiment in all cases: BLI
IL70104 = molecular target: IL70104
IL70109 = molecular target: IL70109
IL70108 = molecular target: IL70108
IL70098 = molecular target: IL70098
IL70110 = molecular target: IL70110
IL70107 = molecular target: IL70107
IL70096 = molecular target: IL70096
IL70106 = molecular target: IL70106
IL70101 = molecular target: IL70101
IL70095 = molecular target: IL70095
IL70092 = molecular target: IL70092
IL70099 = molecular target: IL70099
IL70093 = molecular target: IL70093
IL70094 = molecular target: IL70094
IL70097 = molecular target: IL70097
IL70103 = molecular target: IL70103

Kd (IL70104): 2.64 nM
Kd (IL70109): 1.48 nM
Kd (IL70108): 2.55 nM
Kd (IL70098): 0.52 nM
Kd (IL70110): 0.824 nM
Kd (IL70107): 2.94 nM
Kd (IL70096): 0.708 nM
Kd (IL70106): 2.92 nM
Kd (IL70101): 1.14 nM
Kd (IL70095): 0.429 nM
Kd (IL70092): 0.909 nM
Kd (IL70099): 1.53 nM
Kd (IL70093): 0.525 nM
Kd (IL70094): 0.754 nM
Kd (IL70097): 1.79 nM
Kd (IL70103): 0.657 nM
B1: human interleukin-7 (huIL-7), biotinylated (ligand)
chain: DCDIEGKDGKQYESVLMVSIDQLLDSMKEIGSNCLNNEFNFFKRHICDANKEGMFLFRAARKLRQFLKMNSTGDFDLHLLKVSEGTTILLNCTGQVKGRKPAALGEAQPTKSLEENKSLKEQKKLNDLCFLKRLLQEIKTCWNKILMGTKEH
modifications: biotin
